The results in this text go back to article PMC4605305, “TRAP150 interacts with the RNA-binding domain of PSF and antagonizes splicing of numerous PSF-target genes in T cells” (Nucleic Acids Research, 2015).

The labels stand for the following.
T1: HisFLAG-PSF exRRMs (266-484) (UniProt P23246 266-484)
T1 construct: also called HisFLAG-exRRMs; HFexRRM1+2; source: E. coli Rosetta(DE3)pLysS, purified (Ni-NTA, SEC); not shown: His6, N-terminal, kept; FLAG, N-terminal, kept
T1 sequence (looked up): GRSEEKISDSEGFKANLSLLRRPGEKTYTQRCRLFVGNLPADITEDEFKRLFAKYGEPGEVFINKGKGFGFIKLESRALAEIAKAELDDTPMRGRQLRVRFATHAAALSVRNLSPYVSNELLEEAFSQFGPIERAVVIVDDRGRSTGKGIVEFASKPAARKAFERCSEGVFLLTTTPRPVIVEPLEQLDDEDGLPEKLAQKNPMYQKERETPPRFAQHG

T2: HisFLAG-PSF full length (UniProt P23246 1-707)
T2 construct: PSF (SFPQ), full length; pet15b with an inserted FLAG tag; also called PSF-FL; full length His-tagged PSF; source: E. coli Rosetta(DE3)pLysS, purified (Ni-NTA, SEC); not shown: His6, N-terminal, kept; FLAG, N-terminal, kept
T2 sequence (looked up): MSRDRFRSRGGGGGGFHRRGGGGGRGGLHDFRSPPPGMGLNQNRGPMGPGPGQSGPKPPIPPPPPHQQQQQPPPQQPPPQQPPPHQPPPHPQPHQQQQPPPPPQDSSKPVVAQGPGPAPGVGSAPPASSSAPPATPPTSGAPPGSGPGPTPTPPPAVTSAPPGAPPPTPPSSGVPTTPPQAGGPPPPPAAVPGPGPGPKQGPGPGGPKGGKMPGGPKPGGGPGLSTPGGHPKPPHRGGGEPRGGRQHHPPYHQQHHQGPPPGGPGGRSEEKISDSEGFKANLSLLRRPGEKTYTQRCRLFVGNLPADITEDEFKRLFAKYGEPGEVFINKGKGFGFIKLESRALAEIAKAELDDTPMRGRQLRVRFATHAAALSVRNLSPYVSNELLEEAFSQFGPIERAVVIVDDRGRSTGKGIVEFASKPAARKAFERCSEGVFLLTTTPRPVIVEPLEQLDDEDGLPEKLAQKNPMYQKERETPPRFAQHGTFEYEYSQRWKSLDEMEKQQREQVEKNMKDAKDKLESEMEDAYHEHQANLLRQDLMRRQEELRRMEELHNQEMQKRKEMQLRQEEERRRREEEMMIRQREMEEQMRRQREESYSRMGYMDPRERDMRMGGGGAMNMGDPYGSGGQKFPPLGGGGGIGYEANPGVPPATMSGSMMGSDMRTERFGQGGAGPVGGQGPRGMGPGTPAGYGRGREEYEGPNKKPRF

T3: PSF exRRMs (human, UniProt P23246 266-484)
T3 sequence: T1 sequence (looked up)

T4: PSF exRRM2 (human, UniProt P23246 366-484)
T4 sequence: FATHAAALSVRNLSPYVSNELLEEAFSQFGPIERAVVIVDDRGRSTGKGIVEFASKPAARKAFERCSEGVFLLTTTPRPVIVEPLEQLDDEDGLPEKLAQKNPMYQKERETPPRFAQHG

T5: PSF exRRM1 (human, UniProt P23246 266-365)
T5 sequence: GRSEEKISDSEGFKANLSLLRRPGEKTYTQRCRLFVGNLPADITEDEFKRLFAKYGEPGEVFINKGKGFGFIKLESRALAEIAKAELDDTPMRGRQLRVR

B1: GST-TRAP150 686–755 (PSF-interacting domain, PID) (domain or fragment, UniProt Q9Y2W1 686-755, looked up)
chain: FRKHGLAHDEMKSPREPGYKAEGKYKDDPVDLRLDIERRKKHKERDLKRGKSRESVDSRDSSHSRERSAE
notes: also called GST-TRAP(PID); TRAP150 PID; source: E. coli Rosetta(DE3)pLysS, purified (glutathione sepharose, SEC); not shown: GST, N-terminal, kept
B2: Gb1-tagged TRAP150 686–755 (TRAP-PID) (domain or fragment, UniProt Q9Y2W1 686-755, looked up)
chain: B1 chain
notes: 6xHis + GB1 fusion vector pGβ1; also called Gb1-tagged construct of the TRAP-PID; source: E. coli Rosetta(DE3)pLysS, purified (Ni-NTA, SEC)
B3: GST-TRAPΔN (TRAP150 266-955) (domain or fragment, UniProt Q9Y2W1 266-955, looked up)
chain: RPSPVPKPSPPLSSTSQMGSTLPSGAGYQSGTHQGQFDHGSGSLSPSKKSPVGKSPPSTGSTYGSSQKEESAASGGAAYTKRYLEEQKTENGKDKEQKQTNTDKEKIKEKGSFSDTGLGDGKMKSDSFAPKTDSEKPFRGSQSPKRYKLRDDFEKKMADFHKEEMDDQDKDKAKGRKESEFDDEPKFMSKVIGANKNQEEEKSGKWEGLVYAPPGKEKQRKTEELEEESFPERSKKEDRGKRSEGGHRGFVPEKNFRVTAYKAVQEKSSSPPPRKTSESRDKLGAKGDFPTGKSSFSITREAQVNVRMDSFDEDLARPSGLLAQERKLCRDLVHSNKKEQEFRSIFQHIQSAQSQRSPSELFAQHIVTIVHHVKEHHFGSSGMTLHERFTKYLKRGTEQEAAKNKKSPEIHRRIDISPSTFRKHGLAHDEMKSPREPGYKAEGKYKDDPVDLRLDIERRKKHKERDLKRGKSRESVDSRDSSHSRERSAEKTEKTHKGSKKQKKHRRARDRSRSSSSSSQSSHSYKAEEYTEETEEREESTTGFDKSRLGTKDFVGPSERGGGRARGTFQFRARGRGWGRGNYSGNNNNNSNNDFQKRNREEEWDPEYTPKSKKYYLHDDREGEGSDKWVSRGRGRGAFPRGRGRFMFRKSSTSPKWAHDKFSGEEGEIEDDESGTENREEKDNIQPTTE
notes: pGEX-6-P1; also called GST-TRAP150ΔN; TRAP150-ΔN; source: E. coli Rosetta(DE3)pLysS, purified (glutathione sepharose, SEC); not shown: GST, N-terminal, kept
B4: MKK7 (ssRNA)
RNA: CCUCCUCGUUUAUGAUUUGAUUUCUUUUCUUUUGGACGAAUCGGUCGUUUCUGUUGUGAUUUAUCGUGGUGUUGUUUUUUUCUUCCUUUUCCCCAUCCAG
B5: HisFLAG-PSF ΔRRM1 (natural protein)
chain: MSRDRFRSRGGGGGGFHRRGGGGGRGGLHDFRSPPPGMGLNQNRGPMGPGPGQSGPKPPIPPPPPHQQQQQPPPQQPPPQQPPPHQPPPHPQPHQQQQPPPPPQDSSKPVVAQGPGPAPGVGSAPPASSSAPPATPPTSGAPPGSGPGPTPTPPPAVTSAPPGAPPPTPPSSGVPTTPPQAGGPPPPPAAVPGPGPGPKQGPGPGGPKGGKMPGGPKPGGGPGLSTPGGHPKPPHRGGGEPRGGRQHHPPYHQQHHQGPPPGGPGGRSEEKISDSEGFKANLSLLRRPGEKTYTQRCRGGSGHMATHAAALSVRNLSPYVSNELLEEAFSQFGPIERAVVIVDDRGRSTGKGIVEFASKPAARKAFERCSEGVFLLTTTPRPVIVEPLEQLDDEDGLPEKLAQKNPMYQKERETPPRFAQHGTFEYEYSQRWKSLDEMEKQQREQVEKNMKDAKDKLESEMEDAYHEHQANLLRQDLMRRQEELRRMEELHNQEMQKRKEMQLRQEEERRRREEEMMIRQREMEEQMRRQREESYSRMGYMDPRERDMRMGGGGAMNMGDPYGSGGQKFPPLGGGGGIGYEANPGVPPATMSGSMMGSDMRTERFGQGGAGPVGGQGPRGMGPGTPAGYGRGREEYEGPNKKPRF
notes: PSF (SFPQ) residues 1-298; linker joining the N- and C-terminal portions; PSF (SFPQ) residues 367-707; source: E. coli Rosetta(DE3)pLysS, purified (Ni-NTA, SEC); not shown: His6, N-terminal, kept; FLAG, N-terminal, kept
B6: GST-TRAP150 580–755 (domain or fragment, UniProt Q9Y2W1 580-755, looked up)
chain: LARPSGLLAQERKLCRDLVHSNKKEQEFRSIFQHIQSAQSQRSPSELFAQHIVTIVHHVKEHHFGSSGMTLHERFTKYLKRGTEQEAAKNKKSPEIHRRIDISPSTFRKHGLAHDEMKSPREPGYKAEGKYKDDPVDLRLDIERRKKHKERDLKRGKSRESVDSRDSSHSRERSAE
notes: source: E. coli Rosetta(DE3)pLysS, purified (glutathione sepharose, SEC); not shown: GST, N-terminal, kept
B7: HisFLAG-PSF ΔRRM2 (natural protein)
chain: MSRDRFRSRGGGGGGFHRRGGGGGRGGLHDFRSPPPGMGLNQNRGPMGPGPGQSGPKPPIPPPPPHQQQQQPPPQQPPPQQPPPHQPPPHPQPHQQQQPPPPPQDSSKPVVAQGPGPAPGVGSAPPASSSAPPATPPTSGAPPGSGPGPTPTPPPAVTSAPPGAPPPTPPSSGVPTTPPQAGGPPPPPAAVPGPGPGPKQGPGPGGPKGGKMPGGPKPGGGPGLSTPGGHPKPPHRGGGEPRGGRQHHPPYHQQHHQGPPPGGPGGRSEEKISDSEGFKANLSLLRRPGEKTYTQRCRLFVGNLPADITEDEFKRLFAKYGEPGEVFINKGKGFGFIKLESRALAEIAKAELDDTPMRGRQLRVRFATHAGGSGHMLEQLDDEDGLPEKLAQKNPMYQKERETPPRFAQHGTFEYEYSQRWKSLDEMEKQQREQVEKNMKDAKDKLESEMEDAYHEHQANLLRQDLMRRQEELRRMEELHNQEMQKRKEMQLRQEEERRRREEEMMIRQREMEEQMRRQREESYSRMGYMDPRERDMRMGGGGAMNMGDPYGSGGQKFPPLGGGGGIGYEANPGVPPATMSGSMMGSDMRTERFGQGGAGPVGGQGPRGMGPGTPAGYGRGREEYEGPNKKPRF
notes: PSF (SFPQ) residues 1-370; linker joining the N- and C-terminal portions; PSF (SFPQ) residues 450-707; source: E. coli Rosetta(DE3)pLysS, purified (Ni-NTA, SEC); not shown: His6, N-terminal, kept; FLAG, N-terminal, kept
B8: SRL-1 (ssRNA)
RNA: AACCAAGAGGUUUCUCGCGUAUUUCUCUCAUUUUUUUACCCAUUUUACAAAUUUUUUUUGCUAUUUGAGCCAUAGUACCCAUUAAUAGGUCUCGUCCAUUCCCUUGUUUUUUUUUUAUUGUUUCAAUUACACUACAUAAUUAAAAAUCACAUCACUUUCACUCUCACCUUAGUCGUUCUUUAUCAACCAAAAAUAAAAAAAUGCUUCAAUCCGUUGUCUU

Data set [1] addresses T1, HisFLAG-PSF exRRMs (266-484). Put plainly: pull-down; 40 ug GST-tagged bait on glutathione sepharose 4B beads; prey incubated 1.5 h at 4°C in PBS; washes with PBS supplemented with 300 mM NaCl; western blot. Particulars: both partners purified.
Data set [2] has the same target. As to the kind of experiment: pull-down; Gb1-tagged TRAP150 686-755 precipitated with IgG beads; HisFLAG-exRRMs detected. Conditions: both partners purified.
The next data set deals with T2, HisFLAG-PSF full length. Put plainly: pull-down; 40 ug GST-tagged bait on glutathione sepharose 4B beads; prey incubated 1.5 h at 4°C in PBS; washes with PBS supplemented with 300 mM NaCl; western blot. Particulars: both partners purified.
A further data set has as its target T3, PSF exRRMs. Put plainly: EMSA; UV crosslinking: 12 mM Tris pH 7.5, 120 mM NaCl, 3 mM MgCl2, 1 mM ATP, 20 mM phosphocreatine, 0.1 mM EDTA, 12% glycerol, 1.3% PVA, 25 ng/ul yeast tRNA, 20 ng/ul. Conditions: protein: recombinant; tags: 6xHis-FLAG N-term; label: uniform 32P.
The next data set concerns the target T4, PSF exRRM2. The description is as above. Particulars: protein: recombinant; tags: 6xHis-FLAG N-term; label: uniform 32P.
Another data set deals with T5, PSF exRRM1. Put plainly: EMSA; unmeasurable affinity; UV crosslinking: 12 mM Tris pH 7.5, 120 mM NaCl, 3 mM MgCl2, 1 mM ATP, 20 mM phosphocreatine, 0.1 mM EDTA, 12% glycerol, 1.3% PVA, 25 ng/ul yeast tRNA, 20 ng/ul. Conditions: protein: recombinant; tags: 6xHis-FLAG N-term; label: uniform 32P. On the technique in general: Mobility shift assays separate free from complexed probe on a gel.

For data set [3], the target named is B3. Put plainly: pull-down; 40 ug GST-tagged bait on glutathione sepharose 4B beads; prey incubated 1.5 h at 4°C in PBS; washes with PBS supplemented with 300 mM NaCl; western blot. Conditions: both partners purified.

With B1, the binding result in data set [1] is “binds”.

B2: the binding result in data set [2] was “binds”.

For the molecule B3, the binding result in the data set with HisFLAG-PSF full length is listed as “binds”.

For the molecule B4, the binding result is “binds” with PSF exRRMs, “binds” in the data set with PSF exRRM2 and “no binding” with PSF exRRM1.

As for B5, the binding result in data set [3] is recorded as “binds”.

Take B6: the binding result in data set [1] is listed as “binds”.

Take B7: the binding result in data set [3] is reported as “binds”.

Consider B8, for which the figures for the binding result with PSF exRRMs, with PSF exRRM2 and in the data set with PSF exRRM1 were “binds”, “binds” and “no binding”, respectively.
